The values that follow come from publication PMC2951910, “Signal Transduction Protein Array Analysis Links LRRK2 to Ste20 Kinases and PKC Zeta That Modulate Neuronal Plasticity” (PLoS ONE, 2010).

Test [1] deals with T1, kinase-inactive GST-tagged LRRK2(D1994A) (970-2527) (human, UniProt Q5S007 970-2527, D1994A).
T1 construct: also called kinase-dead LRRK2(D1994A); source: bought: Invitrogen
The test is described as follows: peptide or protein array; BCCP-tagged full-length human proteins held on streptavidin-coated slides, pre-incubated with 100 uM cold ATP; overlaid with 130 nM GST-LRRK2 (G2019S or D1994A) with 10 uM ATP and [gamma-33P]ATP for 1 h at 30 C; washed in 0.5% SDS; radioactive signal on the spots read on phosphoscreens; buffer only as control. The following applies: both partners purified.

In test [2] the target is T2, GST-tagged LRRK2(G2019S) (amino acids 970-2527) (human, UniProt Q5S007 970-2527, G2019S, autophosphorylated (10 uM cold ATP, 1 h, 30 C) before the binding arrays; sites not stated).
T2 construct: leucine-rich repeat kinase 2 (LRRK2), human, amino acids 970-2527, with the Parkinson's disease-linked mutation G2019S; In the 33P arrays the kinase was not autophosphorylated beforehand, but ATP was present during the incubation; also called recombinant LRRK2(G2019S); leucine-rich repeat kinase 2; source: bought: Invitrogen; not shown: GST, N-terminal, kept
The test is described as follows: peptide or protein array; BCCP-tagged full-length human proteins held on streptavidin-coated slides; overlaid with autophosphorylated GST-LRRK2(G2019S) (970-2527) or recombinant GST with cold ATP for 1 h at 30 C; washed in buffer with 0.5% SDS; detected with an Alexa 488-conjugated anti-GST antibody. The following applies: both partners purified.

T2 sequence (Q5S007 970-2527 G2019S): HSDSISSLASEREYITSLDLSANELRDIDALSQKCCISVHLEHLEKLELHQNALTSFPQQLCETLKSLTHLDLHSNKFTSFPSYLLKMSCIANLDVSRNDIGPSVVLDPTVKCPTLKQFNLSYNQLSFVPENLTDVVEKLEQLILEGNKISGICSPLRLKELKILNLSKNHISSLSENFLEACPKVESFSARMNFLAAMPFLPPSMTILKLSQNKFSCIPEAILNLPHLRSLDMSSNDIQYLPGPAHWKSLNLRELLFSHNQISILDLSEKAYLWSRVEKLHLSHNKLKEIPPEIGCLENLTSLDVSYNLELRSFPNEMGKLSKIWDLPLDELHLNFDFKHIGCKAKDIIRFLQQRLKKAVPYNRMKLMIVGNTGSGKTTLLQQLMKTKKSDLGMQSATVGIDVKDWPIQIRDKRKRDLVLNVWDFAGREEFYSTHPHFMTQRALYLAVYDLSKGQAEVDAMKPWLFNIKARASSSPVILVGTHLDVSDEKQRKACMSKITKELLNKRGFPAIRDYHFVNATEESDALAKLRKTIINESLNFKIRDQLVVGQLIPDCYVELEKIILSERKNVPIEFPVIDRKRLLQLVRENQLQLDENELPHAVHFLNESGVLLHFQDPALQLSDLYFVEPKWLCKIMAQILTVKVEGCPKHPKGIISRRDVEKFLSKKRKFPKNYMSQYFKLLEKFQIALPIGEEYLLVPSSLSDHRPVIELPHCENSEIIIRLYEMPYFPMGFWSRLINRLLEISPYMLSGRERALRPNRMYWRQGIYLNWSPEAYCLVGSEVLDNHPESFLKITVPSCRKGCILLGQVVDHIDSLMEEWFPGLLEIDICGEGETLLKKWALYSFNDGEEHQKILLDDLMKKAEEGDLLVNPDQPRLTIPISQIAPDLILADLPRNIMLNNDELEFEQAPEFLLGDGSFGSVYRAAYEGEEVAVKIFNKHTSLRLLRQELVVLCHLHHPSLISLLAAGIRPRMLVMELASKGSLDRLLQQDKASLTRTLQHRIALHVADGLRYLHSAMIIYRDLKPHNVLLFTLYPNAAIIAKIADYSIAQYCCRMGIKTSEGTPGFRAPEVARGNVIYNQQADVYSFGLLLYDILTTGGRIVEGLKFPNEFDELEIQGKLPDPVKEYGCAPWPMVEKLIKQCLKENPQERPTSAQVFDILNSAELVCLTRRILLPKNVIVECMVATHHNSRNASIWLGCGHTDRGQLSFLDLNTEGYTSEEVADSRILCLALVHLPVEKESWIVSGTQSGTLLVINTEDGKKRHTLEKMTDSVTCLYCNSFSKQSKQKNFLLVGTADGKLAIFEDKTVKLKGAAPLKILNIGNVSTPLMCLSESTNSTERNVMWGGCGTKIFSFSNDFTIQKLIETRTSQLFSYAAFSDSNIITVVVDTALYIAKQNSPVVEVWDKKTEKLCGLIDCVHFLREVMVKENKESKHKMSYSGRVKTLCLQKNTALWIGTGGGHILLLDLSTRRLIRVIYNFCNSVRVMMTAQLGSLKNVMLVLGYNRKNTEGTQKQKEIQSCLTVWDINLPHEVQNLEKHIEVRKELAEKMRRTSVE
T1 sequence (Q5S007 970-2527 D1994A): as the sequence (Q5S007 970-2527 G2019S) above, with D1025A, S1050G counted along it

B1: Protein kinase C, zeta (PRKCZ), arrayed (enzyme, human, UniProt Q05513 1-592, looked up)
chain: MPSRTGPKMEGSGGRVRLKAHYGGDIFITSVDAATTFEELCEEVRDMCRLHQQHPLTLKWVDSEGDPCTVSSQMELEEAFRLARQCRDEGLIIHVFPSTPEQPGLPCPGEDKSIYRRGARRWRKLYRANGHLFQAKRFNRRAYCGQCSERIWGLARQGYRCINCKLLVHKRCHGLVPLTCRKHMDSVMPSQEPPVDDKNEDADLPSEETDGIAYISSSRKHDSIKDDSEDLKPVIDGMDGIKISQGLGLQDFDLIRVIGRGSYAKVLLVRLKKNDQIYAMKVVKKELVHDDEDIDWVQTEKHVFEQASSNPFLVGLHSCFQTTSRLFLVIEYVNGGDLMFHMQRQRKLPEEHARFYAAEICIALNFLHERGIIYRDLKLDNVLLDADGHIKLTDYGMCKEGLGPGDTTSTFCGTPNYIAPEILRGEEYGFSVDWWALGVLMFEMMAGRSPFDIITDNPDMNTEDYLFQVILEKPIRIPRFLSVKASHVLKGFLNKDPKERLGCRPQTGFSDIKSHAFFRSIDWDLLEKKQALPPFQPQITDDYGLDNFDTQFTSEPVQLTPDDEDAIKRIDQSEFEGFEYINPLLLSTEESV
modifications: biotin on the biotin-carboxyl carrier protein tag
notes: protein kinase C zeta (PRKCZ), human, full length, spotted on the array; Held on streptavidin-coated glass slides by the biotinylated tag; also called PKC zeta; source: bought: Sigma Panorama Human Protein Function Array - Signal Transduction; expressed in insect cells
For the molecule B1, the binding result in test [1] and in test [2] was “binds” each time.

B2: Serine/threonine kinase 25 (STE20 homolog, yeast) (STK25), arrayed (enzyme)
chain: not shown
modifications: biotin on the biotin-carboxyl carrier protein tag
notes: serine/threonine kinase 25 (STK25), human, full length, spotted on the array; Held on streptavidin-coated glass slides by the biotinylated tag; The array was pre-incubated with 100 uM cold ATP in the substrate arrays; source: bought: Sigma Panorama Human Protein Function Array - Signal Transduction; expressed in insect cells
As to B2, in test [2], the binding result was “binds”.

B3: TNF receptor-associated factor 2, transcript variant 1 (TRAF2), arrayed (natural protein, human, UniProt Q12933 1-501, looked up)
chain: MAAASVTPPGSLELLQPGFSKTLLGTKLEAKYLCSACRNVLRRPFQAQCGHRYCSFCLASILSSGPQNCAACVHEGIYEEGISILESSSAFPDNAARREVESLPAVCPSDGCTWKGTLKEYESCHEGRCPLMLTECPACKGLVRLGEKERHLEHECPERSLSCRHCRAPCCGADVKAHHEVCPKFPLTCDGCGKKKIPREKFQDHVKTCGKCRVPCRFHAIGCLETVEGEKQQEHEVQWLREHLAMLLSSVLEAKPLLGDQSHAGSELLQRCESLEKKTATFENIVCVLNREVERVAMTAEACSRQHRLDQDKIEALSSKVQQLERSIGLKDLAMADLEQKVLEMEASTYDGVFIWKISDFARKRQEAVAGRIPAIFSPAFYTSRYGYKMCLRIYLNGDGTGRGTHLSLFFVVMKGPNDALLRWPFNQKVTLMLLDQNNREHVIDAFRPDVTSSSFQRPVNDMNIASGCPLFCPVSKMEAKNSYVRDDAIFIKAIVDLTGL
modifications: biotin on the biotin-carboxyl carrier protein tag
notes: TNF receptor-associated factor 2 (TRAF2), human, full length, spotted on the array; Held on streptavidin-coated glass slides by the biotinylated tag; also called tumor necrosis factor receptor-associated factor 2; source: bought: Sigma Panorama Human Protein Function Array - Signal Transduction; expressed in insect cells
On to B3, for which the binding result in test [2] is recorded as “binds”.
